In the supplement of paper PMC10567573:

B1: P2RY14 (parent)
chain: KKIFKSHLKSSRNSTSVKKKSSRN

Variants of: B1
Assay: protein stability index of a GFP-peptide fusion (GPS, HEK-293T) (PSI 1-6); higher = more stable
Conditions: c terminus: a fixed tail appended
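Further: lentivirally expressed fusions sorted by FACS into six bins by GFP to DsRed ratio, PSI derived from sequencing read proportions per bin multiplied by bin number.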

Protein stability index, by site and new letter:
N13: T 4.5; F 3.77; E 3.55; G 4.11; V 4.22; W 3.41; C 3.74; M 3.64; I 4.15; D 3.68; P 3.45; K 3.95; R 4.38
S14: V 3.84; W 3.44; R 4.36; Y 4.1; F 3.84; A 3.5; D 4.14; K 4.07; Q 3.69; G 4.22; H 4.35; I 4.14; C 4.31; E 4.35
K5: H 4.33; S 4.2; E 3.89; Y 3.48; D 4.16; V 3.93; L 3.76; Q 4.27; F 4.01; C 4.05; T 4.06; P 4.18; M 3.95; A 4.33
K1: R 3.42; L 3.18; G 4.51; W 2.7; I 2.88; A 4.12; F 3.8; Y 3.58; V 3.5; D 4.5; P 4.22; S 4.26; T 4; E 3.97
S21: V 4.14; F 3.73; M 3.92; Y 3.38; L 3.77; R 4.27; H 4.22; Q 3.88; K 4.48; C 3.84; W 3.3; D 4.42; N 4.17; T 3.8; A 3.98
L8: F 4.04; H 4.05; N 4.31; I 4.16; G 4.49; Y 3.59; M 4.11; Q 3.49; A 4.56; E 4.43; R 4.14; V 4.14; C 4.39; T 4.3
K19: C 3.34; V 4.31; P 3.34; S 3.9; R 4.27; W 2.96; M 3.92; I 3.59; A 3.98; Q 4; E 3.98; H 3.99; L 3.5
K20: N 3.86; P 3.83; I 3.5; F 2.75; D 3.89; M 3.48; W 3.15; V 3.81; C 3.67; H 3.62; Q 4.04; Y 3.95; R 4.39; E 3.75
K9: H 4.41; L 4.05; E 4.51; V 3.39; C 4.37; S 3.87; I 3.7; P 4.47; R 4.27; Q 4.04; M 4
H7: F 3.76; W 3.3; C 4.05; T 4.41; P 3.74; R 4.28; Y 3.38; D 4.36; S 4.15; M 3.79; K 4.39; A 3.79; E 4.41
S16: Q 4.48; E 4.13; L 4.14; V 3.82; K 4.07; D 4.08; W 3.69; I 3.84; P 4.26; N 4.26; R 4.22; G 4.1; F 3.57; C 3.38; Y 4.28
S11: Q 4.31; A 3.93; M 3.62; H 4.67; T 4.22; L 4.12; N 3.96; V 4.31; C 3.93; W 3.36; F 3.69; E 4.35; G 4.26
F4: A 4.49; Y 3.67; S 4.72; K 4.47; Q 4.71; P 4.58; T 4; M 4.28; I 4.3; G 4.56; L 4; R 4.48; E 4.45
V17: P 4.09; M 4.12; R 4.49; Y 3.99; I 3.59; D 4.25; W 3.6; S 4.03; A 4.29; E 3.99; T 4.41; L 4.02; F 3.97; Q 4.06
S6: E 4.36; V 3.79; T 4.11; H 3.9; M 3.82; I 3.5; Y 3.34; A 3.68; G 4.18; P 3.69; R 4.49; N 4.57; D 4.62; K 4.33; Q 4.07
K18: M 4.1; E 3.98; V 3.74; H 4.07; C 3.34; N 4.27; I 3.7; Y 3.66; R 3.88; T 4.17; P 4.29; A 3.8; F 3.54; W 2.98; Q 3.67; L 3.86
T15: K 3.84; I 4.04; V 3.55; Y 3.6; M 4.01; D 4.28; G 4.31; C 3.63; A 4.27; R 4.05; N 4.45; L 3.98
S22: A 4.01; C 4.07; E 4.06; V 4.33; Y 3.56; D 4; Q 4.49; W 3.33; I 5.05; P 4.21; R 4.13; G 4.32; L 3.48; M 4.19; N 4.2; F 2.92
S10: W 3.46; C 4.03; I 3.59; F 3.38; Q 3.83; P 4.24; N 4.33; H 4.14; D 4.41; K 4.15; G 3.81; A 4.08; R 4.18; E 4; Y 3.54; V 3.81
N24: T 4.28; L 4.12; V 4.11; H 4.38; Y 3.46; S 4.07; Q 4.23; C 3.55; E 3.91; K 3.81; F 3.61
R12: H 3.93; E 4.08; P 4.15; T 4.37; S 3.94; K 4.03; A 4.17; V 4.45; I 3.8; Q 4.16; G 3.87; Y 3.39; W 3.74; D 4.43; L 4.11; M 4.03; N 4.17
R23: F 3.42; N 4.25; E 4.18; H 3.57; S 4.28; C 3.91; G 3.94; Q 4.38; T 3.88; W 3.51; I 3.67; V 4.1; A 4.05; M 3.76; D 4.1
K2: P 3.98; V 3.73; L 3.2; I 3.35; Y 3.67; Q 4.04; E 4.29; M 3.53; G 4.12; H 4.01; F 3.63; R 3.88; C 3.88
I3: L 4.23; Y 4.39; F 3.91; R 4.44; Q 4.14; V 4.04; M 4.77; C 4.27; T 4.66; D 4.95; K 4.18; G 4.28; H 4.34
